Data on four molecules can be found in patent US20100190692A1 (published 2010).

*1 amine or outer side, *2 acyl side, *3 side chain or, on linkers, in order; H or OH if unused. [ ]: non-standard residue; d: D form. dSer(tBu) = CC(C)(C)OC[C@@H](N[*:1])C(=O)[*:2]; pGlu = O=C1CC[C@@H](C(=O)O)N1; azaGly = NNC(=O)O

Assay [1] concerns the target T1, human GnRH receptor (human, UniProt P30968 1-328).
T1 construct: whole, on cells; Endogenous receptor; also called LHRH receptor; human pituitary GnRH receptor
T1 sequence (looked up): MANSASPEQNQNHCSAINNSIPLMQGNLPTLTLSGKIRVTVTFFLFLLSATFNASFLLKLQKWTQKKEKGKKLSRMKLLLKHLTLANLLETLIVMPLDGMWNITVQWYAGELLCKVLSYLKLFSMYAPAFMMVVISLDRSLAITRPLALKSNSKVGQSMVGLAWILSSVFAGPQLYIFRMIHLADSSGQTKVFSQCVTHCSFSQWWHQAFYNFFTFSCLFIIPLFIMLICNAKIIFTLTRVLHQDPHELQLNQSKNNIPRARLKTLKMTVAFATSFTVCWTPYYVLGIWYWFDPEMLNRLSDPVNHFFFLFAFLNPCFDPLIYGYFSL
The assay is described as follows: cell-based or functional assay.

The target of assay [2] is T1, human GnRH receptor. The assay is described as follows: radioligand displacement curves on ME15392 melanoma cell membranes. (In general: Displacement assays read how much labelled ligand stays bound in the presence of the test substance.)
Assay [3] addresses T1, human GnRH receptor. As to the kind of experiment: radioligand displacement curves on BLM melanoma cell membranes.
In assay [4] the target is T2, rat pituitary GnRH receptor (rat, UniProt P30969 1-327).
T2 construct: whole, on cells; also called Rat pituitaries
T2 sequence (looked up): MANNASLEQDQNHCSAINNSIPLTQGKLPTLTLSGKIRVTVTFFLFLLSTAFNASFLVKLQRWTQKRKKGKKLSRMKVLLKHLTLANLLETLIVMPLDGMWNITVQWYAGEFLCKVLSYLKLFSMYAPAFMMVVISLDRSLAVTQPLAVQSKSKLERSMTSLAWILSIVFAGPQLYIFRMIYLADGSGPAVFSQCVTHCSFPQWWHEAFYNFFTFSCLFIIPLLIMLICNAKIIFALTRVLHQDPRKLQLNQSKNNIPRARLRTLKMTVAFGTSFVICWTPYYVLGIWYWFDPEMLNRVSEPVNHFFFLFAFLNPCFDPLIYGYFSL
The assay is described as follows: radioligand displacement curves on rat pituitary membranes (control).

With “Antide (LHRH antagonist, Sigma Chemical Co., No. A8802) (peptide)”, in the assay with human GnRH receptor [1], the inhibition of proliferation of MV3 melanoma cells at 10^-4 M is 15%, the inhibition of proliferation of MV3 melanoma cells at 10^-5 M stood at 35% and the stimulation of growth of MV3 melanoma cells at 10^-6 M turned out to be 40%.
On to “Triptorelin (LHRH agonist, Sigma Chemical Co., No. L9761) (peptide)”, for which the inhibition of proliferation of MV3 melanoma cells from day 4 on (10^-4, 10^-5, 10^-6 M) with human GnRH receptor [1] stood at 15%.
For the molecule Cetrorelix (GnRH antagonist) (peptide), in the assay with human GnRH receptor [1], the decrease of proliferation of U-87MG cells at 10^-6 M stood at 28% and the inhibition of proliferation of U-87MG cells at 10^-5 M turned out to be 30%.
A word on the Kd: it is a measure of binding affinity in units of concentration. High values mean a looser complex, low ones a tighter complex. Consider [pGlu]HWSY[dSer(tBu)]LRP[azaGly]-NH2 (also: ^125I-labelled form used as tracer in binding assay, also called Goserelin) [GnRH agonist LHRH-A (ZOLADEX, [D-Ser(tBu)^6Aza-Gly-LHRH])], for which the Kd in the assay with human GnRH receptor [2] was 100 to 600 pM; with human GnRH receptor [3], 700 to 1100 pM; in assay [4], 1500 to 2000 pM.
